Results: patent US20020064828A1 (UNIVERSITY OF BALTIMORE BIOTECHNOLOGY INSTITUTE, published 2002)
Where no end group is shown, it is not given here.

B1: untagged full-length wild type calmyrin expressed in HeLa cells (other)
chain: GGSGSRLSKELLAEYQDLTFLTKQEILLAHRRFCELLPQEQRTVESSLRAQVPFEQILSLPELKANPFKERICRVFSTSPAKDSLSFEDFLDLLSVFSDTATPDIKSHYAFRIFDFDDDGTLNREDLSRLVNCLTGEGEDTRLSASEMKQLIDNILEESDIDRDGTINLSEFQHVISRSPDFASSFKIVL
modifications: myristoylated (NH2 consensus myristoylation site; 3H-myristic acid incorporated)
B2: calmyrin (calcium-binding myristoylated protein with homology to calcineurin), yeast two-hybrid prey in pJG4-5 (clone 7) (other, not shown: large carriers)
chain: MGGSGSRLSKELLAEYQDLTFLTKQEILLAHRRFCELLPQEQRTVESSLRAQVPFEQILSLPELKANPFKERICRVFSTSPAKDSLSFEDFLDLLSVFSDTATPDIKSHYAFRIFDFDDDGTLNREDLSRLVNCLTGEGEDTRLSASEMKQLIDNILEESDIDRDGTINLSEFQHVISRSPDFASSFKIVL
notes: Prey fusion in yeast; also called CIB; KIP

Legend:
[1] = molecular target: full-length human presenilin 2 (PS2) expressed in HeLa cells (human, UniProt P49810 1-448); assay: cell-based or functional assay
[2] = molecular target: T1, PS2-C term bait (LexA fusion, COOH-terminal sequence of PS2 downstream of the eighth TMD) (human); assay: yeast two-hybrid liquid beta-galactosidase assay
T1 construct: also called PS2-COOH-terminal construct; PS2-COOH-terminal domain; not shown: LexA moiety of pEG202, NH2-terminal of the bait
Description: (§1) All PCR-amplified regions were digested with EcoRI and XhoI, cloned into pEG202, and confirmed by DNA sequencing. These various baits were transformed into EGY48 and found by immunoblotting of yeast extracts to express appropriately sized lexA-PS fusion polypeptides. Three isolates from yeast transformed with the calmyrin in pJG4-5 (clone 7) plus each PS bait or the control lamin bait were assayed for β-galactosidase enzyme activity in liquid cultures using ONPG (O-nitrophenyl β-D-galactopyranoside) as a substrate (Reynolds and Lundblad, 1989).
To quantify the binding specificity of calmyrin to the PS2-loop and to determine if this protein also interacts with the PS1 loop which is 45% identical in amino acid sequence, the galactosidase activity was measured in yeast liquid assays.

[3] = molecular target: T2, PS1-loop C bait (LexA fusion, region of PS1 corresponding to PS2-loop C) (human); assay: yeast two-hybrid liquid assay, PS1-loop C against PS2-loop C
T2 construct: not shown: LexA moiety of pEG202, NH2-terminal of the bait

[4] = molecular target: T3, PS1-loop C bait with T281P, L282I (human); assay: yeast two-hybrid liquid assay, mutated PS1-loop C bait against the T281P bait
T3 construct: Range inferred as for PS1-loop C; not shown: LexA moiety of pEG202 (N-terminal fusion partner) and the vector-encoded junction residues
Description: (§2) Three isolates from yeast transformed with the calmyrin in pJG4-5 (clone 7) plus each PS bait or the control lamin bait were assayed for β-galactosidase enzyme activity in liquid cultures using ONPG (O-nitrophenyl β-D-galactopyranoside) as a substrate (Reynolds and Lundblad, 1989).
(§3) Further investigation was performed to determine how these three divergent residues influenced calmyrin interaction with the PS-loop C region in yeast two-hybrid assays. […] When both proline and alanine were present together (T281P, T291A) they increased binding substantially, producing an approximately twofold higher level of binding compared with the wild-type PS2-loop bait.

[5] = molecular target: T4, PS1-loop C bait with L282I, T291A (human); assay: yeast two-hybrid liquid assay, mutated PS1-loop C bait against the T291A bait
T4 construct: Range inferred as for PS1-loop C; not shown: LexA moiety of pEG202 (N-terminal fusion partner) and the vector-encoded junction residues
Description: as §2, §3

[6] = molecular target: T5, PS1-loop C bait with T281P (human); assay: yeast two-hybrid liquid assay, mutated PS1-loop C bait against PS2-loop C bait
T5 construct: Range inferred as for PS1-loop C; not shown: LexA moiety of pEG202 (N-terminal fusion partner) and the vector-encoded junction residues
Description: as §2, §3

[7] = molecular target: T6, PS1-loop C bait with T291A (human); assay: as above
T6 construct: Range inferred as for PS1-loop C; not shown: LexA moiety of pEG202 (N-terminal fusion partner) and the vector-encoded junction residues
Description: as §2, §3

[8] = molecular target: T7, PS1-loop C bait with T281P, T291A (human); assay: as above
T7 construct: Range inferred as for PS1-loop C; also called (T281P, T291A) double mutant; not shown: LexA moiety of pEG202 (N-terminal fusion partner) and the vector-encoded junction residues
Description: as §2, §3

[9] = molecular target: T8, PS1-loop B bait (LexA fusion, region of PS1 corresponding to PS2-loop B) (human, UniProt P49768 264-315); assay: yeast two-hybrid liquid beta-galactosidase assay (ONPG), LexA bait and calmyrin prey
T8 construct: not shown: LexA moiety of pEG202, NH2-terminal of the bait
Description: as §1
(§4) To further map the binding site of calmyrin within the PS2-loop, two new baits were constructed which divided the loop into a conserved portion, loop C (28 out of the 31 amino acids are identical to PS1 ), and a divergent region, loop D (only 33% identity to PS1; FIG. 1).

[10] = molecular target: T2, PS1-loop C bait (LexA fusion, region of …); assay: as above
Description: as §1, §4

[11] = molecular target: T9, PS2-loop B bait (LexA fusion, first 50 amino acids of the PS2 loop) (human, UniProt O88777 270-319 (rat entry)); assay: as above
T9 construct: Range 270-319 follows from 'residues 270-361' and 'the first 50 amino acids of the PS2 loop'; also called PS2-loop bait; loop bait; not shown: LexA moiety of the pEG202 LexA fusion plasmid, NH2-terminal of the bait
Description: as §1, §4

[12] = molecular target: T10, PS2-loop C bait (LexA fusion, conserved 31-amino acid loop region of PS2) (human); assay: as above
T10 construct: Range 270-300 follows from loop start 270 and '31 amino acids'; also called wild-type PS2-loop bait; not shown: LexA moiety of pEG202, NH2-terminal of the bait
Description: as §1, §4

[13] = molecular target: T11, PS2-loop D bait (LexA fusion, divergent region of the PS2 loop) (human, also: N-terminal LexA (pEG202) fusion, limits and linker not given here); assay: as above
T11 construct: Range 301-319 is inferred from loop B being divided into loop C (31 aa) and loop D; not shown: LexA moiety of pEG202, NH2-terminal of the bait
T11 chain: TVGMAKLDPSSQGALQLPY
Description: as §1, §4

T9 sequence (O88777 270-319 limits assumed): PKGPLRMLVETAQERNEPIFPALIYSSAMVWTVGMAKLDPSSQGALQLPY
T1 sequence (chain, as listed by the source limits assumed): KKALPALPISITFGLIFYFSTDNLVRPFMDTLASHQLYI

Row | Binder | cell death (floating HeLa cells), fold over control, on coexpression [1] [fold] | binding result [2] | interaction strength relative to the PS2-loop region [3] | fold binding compared with the T281P bait [4] [fold] | binding result [5] | interaction relative to the PS2 level [6] | binding relative to the PS2 level [7] | fold level of binding compared with the wild-type PS2-loop bait [8] [fold] | fold increase in beta-galactosidase activity over lamin B control [9] [fold] | fold increase in beta-galactosidase activity over control [10] [fold] | fold increase in beta-galactosidase activity over lamin B control [11] [fold] | fold increase in beta-galactosidase activity over control [12] [fold] | fold increase in beta-galactosidase activity over control [13] [fold]
1 | B1 | 5.9 |  |  |  |  |  |  |  |  |  |  |  | 
2 | B2 |  | no binding | < 0.1 fraction of the PS2-loop strength | 1.7 | binds | ~0.5 fraction of the PS2 level | 0.33 fraction of the PS2 level | ~2 | 1.9 | 5.8 | 8.5 | 74 | 2.2
